Results reported in paper PMC11143371.

Experiments:
[1] = biological target: RV3 F ectodomain without GCN4, Q89M + Q222I + L168P + S470V (human respirovirus 3 (HPIV3/Seattle/USA/10Q7/2010)); assay: SEC
[2] = biological target: RV3 F ectodomain without GCN4, Q89M + Q222I + L168P + S470V + S477V (human respirovirus 3 (HPIV3/Seattle/USA/10Q7/2010)); assay: SEC
[3] = biological target: RV3 F ectodomain without GCN4, Q89M + Q222I + L168P + S477V (human respirovirus 3 (HPIV3/Seattle/USA/10Q7/2010)); assay: SEC
[4] = biological target: RV3 F ectodomain without GCN4, five head-stabilizing substitutions (S41P, N167P, Q89M, Q222I, L168P) (human respirovirus 3 (HPIV3/Seattle/USA/10Q7/2010)); assay: SEC-MALS; analytical SEC-MALS of F variants in supernatant
[5] = biological target: RV3 F ectodomain without GCN4, five head-stabilizing substitutions plus S470V and S477V (human respirovirus 3 (HPIV3/Seattle/USA/10Q7/2010)); assay: as above
[6] = biological target: stabilized RV1 preF (A44P + E170P + Q171P + S473V + A480V) (human respirovirus 1) (UniProt P12605); assay: SEC
[7] = biological target: stabilized RV1 preF (A44P + E170P + Q171P + S473V + A480V) (human respirovirus 1) (UniProt P12605); assay: SEC-MALS
[8] = biological target: stabilized RV1 preF with K339P (A44P + E170P + Q171P + K339P + S473V + A480V) (human respirovirus 1) (UniProt P12605); assay: SEC

RV3 F ectodomain without GCN4, Q89M + Q222I + L168P + S470V (domain or fragment)
stoichiometry N [1]: 3

RV3 F ectodomain without GCN4, Q89M + Q222I + L168P + S470V + S477V (domain or fragment)
stoichiometry N [2]: 3

RV3 F ectodomain without GCN4, Q89M + Q222I + L168P + S477V (domain or fragment)
stoichiometry N [3]: 3

RV3 F ectodomain without GCN4, five head-stabilizing substitutions (S41P, N167P, Q89M, Q222I, L168P) (domain or fragment)
stoichiometry N [4]: 3

RV3 F ectodomain without GCN4, five head-stabilizing substitutions plus S470V and S477V (domain or fragment)
stoichiometry N [5]: 3

stabilized RV1 preF (A44P + E170P + Q171P + S473V + A480V) (from UniProt P12605 22-496) (domain or fragment)
stoichiometry N [6]: 3 | stoichiometry N [7]: 3

stabilized RV1 preF with K339P (A44P + E170P + Q171P + K339P + S473V + A480V) (from UniProt P12605 22-496) (domain or fragment)
stoichiometry N [8]: 3
